Source: FireProtDB (doi:10.1021/bi011146t)

Details: Alicyclobacillus acidocaldarius subsp. acidocaldarius, pH 7.5, 20 °C, CD, sodium phosphate 20 mM, reversible: no

Substance: wild type (from UniProt Q7SIG1)
- denaturant m value (GdnHCl): 2.08 kcal/mol/M
- denaturant midpoint (higher = more stable) (GdnHCl): 1.9 M
- unfolding free energy (GdnHCl): 4.3 kcal/mol
- denaturant m value (Urea): 2.63 kcal/mol/M
- denaturant midpoint (higher = more stable) (Urea): 5.9 M
- unfolding free energy (Urea): 15.1 kcal/mol
